Test results published in paper PMC7617353, “Molecular basis of FIGNL1 in dissociating RAD51 from DNA and chromatin” (Science (New York, N.Y.), 2024).

B2: FIGNL1ΔN(E501Q) (domain or fragment, human, UniProt Q6PIW4 287-674, looked up)
chain: KEDSSLPTFKTAKEQLWVDQQKKYHQPQRASGSSYGGVKKSLGASRSRGILGKFVPPIPKQDGGEQNGGMQCKPYGAGPTEPAHPVDERLKNLEPKMIELIMNEIMDHGPPVNWEDIAGVEFAKATIKEIVVWPMLRPDIFTGLRGPPKGILLFGPPGTGKTLIGKCIASQSGATFFSISASSLTSKWVGEGEKMVRALFAVARCQQPAVIFIDQIDSLLSQRGDGEHESSRRIKTEFLVQLDGATTSSEDRILVVGATNRPQEIDEAARRRLVKRLYIPLPEASARKQIVINLMSKEQCCLSEEEIEQIVQQSDAFSGADMTQLCREASLGPIRSLQTADIATITPDQVRPIAYIDFENAFRTVRPSVSPKDLELYENWNKTFGCGK
notes: Six copies in the cryo-EM hexamer with ATP.Mg2+ and RAD51; also called E501Q mutant; source: E. coli BL21(DE3), purified as the wild type (HisTrap, StrepTrap, SEC)
B3: RAD51 (natural protein, human, UniProt Q06609 1-339, looked up)
chain: MAMQMQLEANADTSVEEESFGPQPISRLEQCGINANDVKKLEEAGFHTVEAVAYAPKKELINIKGISEAKADKILAEAAKLVPMGFTTATEFHQRRSEIIQITTGSKELDKLLQGGIETGSITEMFGEFRTGKTQICHTLAVTCQLPIDRGGGEGKAMYIDTEGTFRPERLLAVAERYGLSGSDVLDNVAYARAFNTDHQTQLLYQASAMMVESRYALLIVDSATALYRTDYSGRGELSARQMHLARFLRMLLRLADEFGVAVVITNQVVAQVDGAAMFAADPKKPIGGNIIAHASTTRLYLRKGRGETRICKIYDSPCLPEAEAMFAINADGVGDAKD
modifications: cysteine reactive RED-MALEIMIDE label (only in the MST with labelled RAD51)
notes: RAD51, expressed without tags; PDB 8R64 holds only residues 2-13 of it; also called RAD51 recombinase

What was measured:
[1] = biological target: T1, FIGNL1ΔN (human FIGNL1 residues 287-674) (human, UniProt Q6PIW4 287-674); test: cryo-EM structure; 5µM FIGNL1ΔN with 1mM ATPγS and 5mM MgCl2, 15 minutes at 37°C in EM buffer; planar hexamer, 9.2Å map
T1 construct: Monomer by SEC-MALLS after purification; hexamer with ATPγS by cryo-EM; source: E. coli BL21(DE3), purified (HisTrap, StrepTrap, SEC Superdex 200 increase)
T1 sequence (looked up): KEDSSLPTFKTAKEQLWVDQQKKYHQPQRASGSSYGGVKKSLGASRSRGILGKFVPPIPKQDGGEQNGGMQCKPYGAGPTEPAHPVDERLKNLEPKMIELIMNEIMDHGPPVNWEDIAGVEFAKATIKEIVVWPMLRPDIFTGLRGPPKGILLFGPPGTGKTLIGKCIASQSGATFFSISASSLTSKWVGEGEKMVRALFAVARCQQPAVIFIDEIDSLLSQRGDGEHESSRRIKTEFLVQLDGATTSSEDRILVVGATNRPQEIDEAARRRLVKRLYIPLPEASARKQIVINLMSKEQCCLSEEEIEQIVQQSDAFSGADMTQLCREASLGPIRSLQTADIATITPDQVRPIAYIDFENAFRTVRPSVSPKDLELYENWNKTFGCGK

[2] = biological target: T2, RAD51 (human, UniProt Q06609 1-339, cysteine reactive RED-MALEIMIDE label (only in the MST with labelled RAD51)); test: MST
T2 chain: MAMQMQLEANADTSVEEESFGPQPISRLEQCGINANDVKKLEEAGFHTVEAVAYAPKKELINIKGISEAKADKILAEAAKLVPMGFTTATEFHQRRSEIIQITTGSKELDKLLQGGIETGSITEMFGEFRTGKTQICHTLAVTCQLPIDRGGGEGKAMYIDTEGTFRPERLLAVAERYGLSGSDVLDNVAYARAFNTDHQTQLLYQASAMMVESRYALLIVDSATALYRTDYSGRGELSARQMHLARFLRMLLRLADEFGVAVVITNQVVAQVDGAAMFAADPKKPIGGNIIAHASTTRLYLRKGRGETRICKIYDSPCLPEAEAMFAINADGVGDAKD

[3] = biological target: B3; test: cryo-EM structure; 10μM FIGNL1ΔN(E501Q) with 10μM RAD51, 1mM ATP, 5mM MgCl2, 20 mM Tris-HCl pH 8.0, 100 mM NaCl, 10 minutes at 37°C; whole complex ~8 Å, focused hexamer with RAD51 N-terminus 2.9 Å; conditions: both partners purified
[4] = biological target: the molecule itself; test: as above
[5] = biological target: T3, FIGNL1ΔN with an N-terminal YBBR-tag, labelled (human, UniProt Q6PIW4 287-674, labelled as previously described (refs 59, 60)); test: MST
T3 chain: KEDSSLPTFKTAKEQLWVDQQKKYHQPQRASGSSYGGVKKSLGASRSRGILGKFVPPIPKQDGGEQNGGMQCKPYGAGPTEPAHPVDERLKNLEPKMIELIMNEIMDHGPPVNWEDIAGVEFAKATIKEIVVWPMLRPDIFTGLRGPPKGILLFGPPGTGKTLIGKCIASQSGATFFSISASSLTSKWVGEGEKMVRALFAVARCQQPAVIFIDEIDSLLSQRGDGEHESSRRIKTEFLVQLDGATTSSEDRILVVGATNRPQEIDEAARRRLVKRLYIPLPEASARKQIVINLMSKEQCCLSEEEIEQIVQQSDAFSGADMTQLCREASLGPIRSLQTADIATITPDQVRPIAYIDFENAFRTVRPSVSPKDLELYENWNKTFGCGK

[6] = biological target: T4, FIGNL1ΔN pore loop 1 mutant (K473E,W474A) (human, UniProt Q6PIW4 287-674, K473E | W474A); test: MST
T4 sequence: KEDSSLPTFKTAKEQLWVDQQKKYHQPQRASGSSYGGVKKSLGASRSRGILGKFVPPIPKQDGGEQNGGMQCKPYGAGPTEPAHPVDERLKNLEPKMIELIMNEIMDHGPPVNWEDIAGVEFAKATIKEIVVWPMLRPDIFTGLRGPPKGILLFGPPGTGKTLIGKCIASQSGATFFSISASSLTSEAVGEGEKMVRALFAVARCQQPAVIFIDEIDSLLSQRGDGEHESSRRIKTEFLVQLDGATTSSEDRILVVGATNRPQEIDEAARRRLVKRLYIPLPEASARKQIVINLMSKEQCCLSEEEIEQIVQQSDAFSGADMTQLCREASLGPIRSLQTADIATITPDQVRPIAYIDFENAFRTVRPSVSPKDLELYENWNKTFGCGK

[7] = biological target: T1, FIGNL1ΔN (human FIGNL1 residues 287-674); test: MST; 100nM RED-MALEIMIDE labelled RAD51 with a serial dilution of FIGNL1ΔN (and mutants); 20mM Tris pH 8.0, 100mM NaCl, 1mM ATP, 5mM MgCl2, 0.05% TWEEN-20; 25°C; conditions: both partners purified
[8] = biological target: B2; test: as above; conditions: both partners purified
[9] = biological target: T5, FIGNL1ΔN pore loop 1 mutant (K473E,W474A) (human, UniProt Q6PIW4 287-674, K473E | W474A); test: as above; conditions: both partners purified
T5 construct: also called PL mutant; source: E. coli BL21(DE3), purified as the wild type (HisTrap, StrepTrap, SEC)
T5 sequence (looked up): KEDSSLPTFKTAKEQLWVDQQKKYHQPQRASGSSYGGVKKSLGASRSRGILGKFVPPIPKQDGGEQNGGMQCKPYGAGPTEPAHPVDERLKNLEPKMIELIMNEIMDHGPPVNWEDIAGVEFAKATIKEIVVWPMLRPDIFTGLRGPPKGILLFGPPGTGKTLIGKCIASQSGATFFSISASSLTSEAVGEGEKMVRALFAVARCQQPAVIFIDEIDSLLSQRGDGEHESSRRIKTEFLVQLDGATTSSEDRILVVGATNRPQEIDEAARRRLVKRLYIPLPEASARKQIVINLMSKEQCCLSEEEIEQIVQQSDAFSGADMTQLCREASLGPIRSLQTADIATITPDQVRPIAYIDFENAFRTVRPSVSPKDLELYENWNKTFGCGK

[10] = biological target: T6, FIGNL1ΔN(E501Q) (human, UniProt Q6PIW4 287-674, E501Q); test: MST
T6 sequence: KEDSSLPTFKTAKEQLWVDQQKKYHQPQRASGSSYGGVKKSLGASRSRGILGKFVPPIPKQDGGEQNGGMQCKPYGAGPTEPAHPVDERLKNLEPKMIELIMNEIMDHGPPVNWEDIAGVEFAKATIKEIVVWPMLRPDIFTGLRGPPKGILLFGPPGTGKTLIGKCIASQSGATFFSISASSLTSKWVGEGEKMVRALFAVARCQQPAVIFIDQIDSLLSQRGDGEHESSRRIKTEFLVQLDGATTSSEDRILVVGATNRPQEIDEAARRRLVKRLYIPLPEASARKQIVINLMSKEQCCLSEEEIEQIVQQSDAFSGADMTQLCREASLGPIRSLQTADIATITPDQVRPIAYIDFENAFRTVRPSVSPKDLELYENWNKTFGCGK

[11] = biological target: T7, FIGNL1ΔN with an N-terminal YBBR-tag, labelled (human, UniProt Q6PIW4 287-674, labelled as previously described (refs 59, 60)); test: MST; 100nM FIGNL1ΔN labelled at an N-terminal YBBR-tag with a serial dilution of RAD51 and RAD51ΔN; measured as in the labelled RAD51 experiments; conditions: both partners purified
T7 sequence (looked up): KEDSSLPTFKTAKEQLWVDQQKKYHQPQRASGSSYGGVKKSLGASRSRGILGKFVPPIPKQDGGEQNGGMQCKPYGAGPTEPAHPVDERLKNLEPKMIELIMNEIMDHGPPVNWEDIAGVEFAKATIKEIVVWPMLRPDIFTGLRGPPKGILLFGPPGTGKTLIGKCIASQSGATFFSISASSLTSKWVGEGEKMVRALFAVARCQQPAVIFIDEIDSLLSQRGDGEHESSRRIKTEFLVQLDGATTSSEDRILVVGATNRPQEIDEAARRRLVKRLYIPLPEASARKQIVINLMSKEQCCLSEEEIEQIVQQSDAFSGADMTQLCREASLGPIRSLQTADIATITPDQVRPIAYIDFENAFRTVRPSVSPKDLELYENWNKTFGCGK

B1: FIGNL1ΔN (human FIGNL1 residues 287-674) (domain or fragment)
chain: KEDSSLPTFKTAKEQLWVDQQKKYHQPQRASGSSYGGVKKSLGASRSRGILGKFVPPIPKQDGGEQNGGMQCKPYGAGPTEPAHPVDERLKNLEPKMIELIMNEIMDHGPPVNWEDIAGVEFAKATIKEIVVWPMLRPDIFTGLRGPPKGILLFGPPGTGKTLIGKCIASQSGATFFSISASSLTSKWVGEGEKMVRALFAVARCQQPAVIFIDEIDSLLSQRGDGEHESSRRIKTEFLVQLDGATTSSEDRILVVGATNRPQEIDEAARRRLVKRLYIPLPEASARKQIVINLMSKEQCCLSEEEIEQIVQQSDAFSGADMTQLCREASLGPIRSLQTADIATITPDQVRPIAYIDFENAFRTVRPSVSPKDLELYENWNKTFGCGK
B1 gave a stoichiometry N [1] of 6 and a Kd [2] of 0.328 µM.

For B2, the “stoichiometry N” value [3] was 2 RAD51 monomers per FIGNL1 hexamer and the “stoichiometry N” value [4] was 6.

B3 was tested, and the Kd [5] was 0.109 µM, the Kd [6] was 0.34 µM and the binding result [7] was “binds”. For the same binder, the binding result [8] was “binds”, the binding result [9] was “binds” and the Kd [10] was 0.279 µM.

B4: RAD51ΔN (RAD51 lacking the N-terminal 20 residues) (domain or fragment, human, UniProt Q06609 21-339, looked up)
chain: GPQPISRLEQCGINANDVKKLEEAGFHTVEAVAYAPKKELINIKGISEAKADKILAEAAKLVPMGFTTATEFHQRRSEIIQITTGSKELDKLLQGGIETGSITEMFGEFRTGKTQICHTLAVTCQLPIDRGGGEGKAMYIDTEGTFRPERLLAVAERYGLSGSDVLDNVAYARAFNTDHQTQLLYQASAMMVESRYALLIVDSATALYRTDYSGRGELSARQMHLARFLRMLLRLADEFGVAVVITNQVVAQVDGAAMFAADPKKPIGGNIIAHASTTRLYLRKGRGETRICKIYDSPCLPEAEAMFAINADGVGDAKD
notes: RAD51 lacking the N-terminal 20 residues; also called RAD51 with N-terminal 20 a.a. deleted
In the case of B4, the Kd [5] is reported as 0.315 µM and the binding result [11] is reported as “binds”.
